According to patent US20110038881A1, “PROGNOSTIC ASSAY FOR DETERMINING T CELL RESPONSE TO HLA ANTIGENS AND USE THEREOF IN FIELD OF TISSUE TRANSPLANTATION” (priority 2007, published 2011):

T1: HLA-DRB1*1301 (human)
T1 chain 1: not shown
T1 chain 2: not shown


Tests used:
HLA-DRB5*0101 (human) = assay: competition binding; conditions: modification not given
HLA-DRB1*1501 (human) = assay: competition binding; conditions: modification not given
HLA-DRB1*0701 (human) = assay: competition binding; conditions: modification not given
HLA-DRB1*0101 (human) = assay: competition binding; conditions: modification not given
HLA-DRB1*0301 (human) = assay: competition binding; conditions: modification not given
HLA-DRB1*0401 (human) = assay: competition binding; conditions: modification not given
HLA-DRB3*0101 (human) = assay: competition binding; conditions: modification not given
HLA-DRB4*0101 (human) [1] = assay: competition binding; conditions: modification not given
HLA-DRB1*1101 (human) = assay: competition binding; conditions: modification not given
HLA-DRB1*1301 (human) [2] = assay: competition binding; conditions: modification not given
HLA-DRB4*0101 (human) [3] = assay: competition; conditions: modification not given
HLA-DRB1*1301 (human) [4] = target: T1, HLA-DRB1*1301 (human); assay: competition assay on purified, immobilised HLA-DR against the biotinylated reference peptide, pH 4.5

Binder | IC50 (HLA-DRB5*0101 (human)) | IC50 (HLA-DRB1*1501 (human)) | IC50 (HLA-DRB1*0701 (human)) | IC50 (HLA-DRB1*0101 (human)) | IC50 (HLA-DRB1*0301 (human)) | IC50 (HLA-DRB1*0401 (human)) | IC50 (HLA-DRB3*0101 (human)) | IC50 (HLA-DRB4*0101 (human) [1]) | IC50 (HLA-DRB1*1101 (human)) | IC50 (HLA-DRB1*1301 (human) [2]) | IC50 (HLA-DRB4*0101 (human) [3]) | IC50 (HLA-DRB1*1301 (human) [4])
KPLTLRWEPSSQPTI [p50*] | 45.8 µM | 5.61 µM | 0.097 µM | 0.458 µM | > 100 µM | 0.134 µM | 3.55 µM | 4.58 µM | 11.4 µM | > 100 µM | – | –
SQRMEPRAPWIEQEGP [p9] | 67.1 µM | 33.2 µM | 83.7 µM | 10.8 µM | > 100 µM | > 100 µM | > 100 µM | > 100 µM | 15.5 µM | 60 µM | – | –
VGYVDDTQFVRFDSD [p6] | 9.19 µM | 1.78 µM | 3.16 µM | 27.7 µM | 0.6 µM | 97.5 µM | 0.245 µM | 9 µM | 2.8 µM | > 100 µM | – | –
TSVSRPGRGEPRFIA [p3] | > 100 µM | 18.7 µM | 6.93 µM | 0.648 µM | > 100 µM | 5.48 µM | > 100 µM | > 100 µM | 1.02 µM | > 100 µM | – | –
VDLGTLRGYYNQSEA [p14*] | 11 µM | 0.082 µM | > 100 µM | 0.209 µM | > 100 µM | 8.83 µM | > 100 µM | > 100 µM | 1.55 µM | > 100 µM | – | –
HAVSDHEATLRCWAL [p39] | – | – | – | – | – | – | – | – | – | – | 0.008 µM | –
TERVRLVTRHIYNREE (modifications not checked) [reference peptide B1 21-36] | – | – | – | – | – | – | – | – | – | – | – | 0.131 µM
RGYHQYAYDGKDYIA [p22] | 40 µM | > 100 µM | 33.4 µM | 9.49 µM | 8.48 µM | 81.5 µM | 1.28 µM | > 100 µM | 1.75 µM | > 100 µM | – | –
HRVDLGTLRGYYNQS [p13*] | 12.4 µM | 0.088 µM | 36.7 µM | 0.089 µM | > 100 µM | 4.04 µM | > 100 µM | 67.1 µM | 8.06 µM | > 100 µM | – | –
APWIEQEGPEYWDGE [p10] | 73.5 µM | 51.2 µM | 79.4 µM | 13 µM | 49.7 µM | > 100 µM | 75 µM | > 100 µM | 58.1 µM | > 100 µM | – | –
PEYWDGETRKVKAHS [p11] | 24.4 µM | > 100 µM | 62.9 µM | 4.95 µM | > 100 µM | 63.2 µM | > 100 µM | > 100 µM | 0.418 µM | > 100 µM | – | –

Next, values leading:

IC50 (HLA-DRB5*0101 (human)) | IC50 (HLA-DRB1*1501 (human)) | IC50 (HLA-DRB1*0701 (human)) | IC50 (HLA-DRB1*0101 (human)) | IC50 (HLA-DRB1*0301 (human)) | IC50 (HLA-DRB1*0401 (human)) | IC50 (HLA-DRB3*0101 (human)) | IC50 (HLA-DRB4*0101 (human) [1]) | IC50 (HLA-DRB1*1101 (human)) | IC50 (HLA-DRB1*1301 (human) [2]) | IC50 (HLA-DRB4*0101 (human) [3]) | IC50 (HLA-DRB1*1301 (human) [4]) | Binder
0.004 µM | 0.509 µM | 0.038 µM | 0.003 µM | 7.35 µM | 0.013 µM | > 100 µM | 0.193 µM | 0.002 µM | 0.365 µM | – | – | HSMRYFFTSVSRPGR [p1*]
7.98 µM | > 100 µM | 0.486 µM | 21.6 µM | > 100 µM | 100 µM | > 100 µM | 2.97 µM | > 100 µM | 0.385 µM | – | – | RKVKAHSQTHRVDLG [p12]
1.5 µM | > 100 µM | 37.8 µM | 0.406 µM | 52 µM | 17.7 µM | 2.29 µM | > 100 µM | 0.684 µM | > 100 µM | – | – | HQYAYDGKDYIALKE [p23]
4.69 µM | 18.8 µM | > 100 µM | 1.34 µM | > 100 µM | > 100 µM | 30 µM | 4.58 µM | 6 µM | > 100 µM | – | – | AEITLTWQRDGEDQT [p42]
0.052 µM | 0.125 µM | 2.96 µM | 0.01 µM | 1.63 µM | 0.325 µM | 85.5 µM | 27.4 µM | 0.042 µM | 2.74 µM | – | – | KDYIALKEDLRSWTA [p25]
0.612 µM | 0.033 µM | 2.96 µM | 0.406 µM | > 100 µM | 1.82 µM | > 100 µM | > 100 µM | 1.86 µM | > 100 µM | – | – | GTLRGYYNQSEAGSH [p15*]
0.033 µM | 0.598 µM | 0.341 µM | 0.009 µM | 1.5 µM | 0.543 µM | > 100 µM | 51.4 µM | 0.029 µM | 100 µM | – | – | CDVGSDWRFLRGYHQ [p19]
0.812 µM | 0.028 µM | 0.045 µM | 0.026 µM | 5.23 µM | 2 µM | 3.97 µM | 4.52 µM | 40.6 µM | > 100 µM | – | – | RCWALSFYPAEITLT [p40]
3.58 µM | > 100 µM | 4.65 µM | 14 µM | 1.4 µM | 3.39 µM | 2.68 µM | > 100 µM | 58.3 µM | > 100 µM | – | – | VRFDSDAASQRMEPR [p8*]
